Settings in all cases: protein: recombinant; label: 32P on both strands; blunt
Data set [1] has as its target T1, TATA-binding protein (TBP) (Homo sapiens, UniProt P20226 1-339). The experiment in a line: EMSA (kinetic, kd/ka); 5 mM Mg2+; ka 30e3 M-1s-1, kd 6e-4 s-1; 20 mM HEPES-KOH pH 7.6, 5 mM MgCl2, 70 mM KCl, 1 mM DTT, 100 ug/mL BSA, 0.01% NP-40, 5% glycerol, 25 C; 0.3 nM active TBP, ODN 10-60 nM.
Data set [2] concerns the target T1, TATA-binding protein (TBP). The experiment in a line: EMSA (kinetic, kd/ka); 5 mM Mg2+; ka 5.6e3 M-1s-1, kd 13.0e-4 s-1; 20 mM HEPES-KOH pH 7.6, 5 mM MgCl2, 70 mM KCl, 1 mM DTT, 100 ug/mL BSA, 0.01% NP-40, 5% glycerol, 25 C; 0.3 nM active TBP, ODN 10-60 nM.
For data set [3], the target named is T1, TATA-binding protein (TBP). The experiment in a line: EMSA (kinetic, kd/ka); 5 mM Mg2+; ka 3.5e3 M-1s-1, kd 1.5e-4 s-1; 20 mM HEPES-KOH pH 7.6, 5 mM MgCl2, 70 mM KCl, 1 mM DTT, 100 ug/mL BSA, 0.01% NP-40, 5% glycerol, 25 C; 0.3 nM active TBP, ODN 10-60 nM.
For data set [4], the target named is T1, TATA-binding protein (TBP). The experiment in a line: EMSA (kinetic, kd/ka); 5 mM Mg2+; ka 70e3 M-1s-1, kd 5e-4 s-1; 20 mM HEPES-KOH pH 7.6, 5 mM MgCl2, 70 mM KCl, 1 mM DTT, 100 ug/mL BSA, 0.01% NP-40, 5% glycerol, 25 C; 0.3 nM active TBP, ODN 10-60 nM.
For data set [5], the target named is T1, TATA-binding protein (TBP). The experiment in a line: EMSA (kinetic, kd/ka); 5 mM Mg2+; ka 2.3e3 M-1s-1, kd 1.8e-4 s-1; 20 mM HEPES-KOH pH 7.6, 5 mM MgCl2, 70 mM KCl, 1 mM DTT, 100 ug/mL BSA, 0.01% NP-40, 5% glycerol, 25 C; 0.3 nM active TBP, ODN 10-60 nM.

T1 sequence (P20226 whole entry): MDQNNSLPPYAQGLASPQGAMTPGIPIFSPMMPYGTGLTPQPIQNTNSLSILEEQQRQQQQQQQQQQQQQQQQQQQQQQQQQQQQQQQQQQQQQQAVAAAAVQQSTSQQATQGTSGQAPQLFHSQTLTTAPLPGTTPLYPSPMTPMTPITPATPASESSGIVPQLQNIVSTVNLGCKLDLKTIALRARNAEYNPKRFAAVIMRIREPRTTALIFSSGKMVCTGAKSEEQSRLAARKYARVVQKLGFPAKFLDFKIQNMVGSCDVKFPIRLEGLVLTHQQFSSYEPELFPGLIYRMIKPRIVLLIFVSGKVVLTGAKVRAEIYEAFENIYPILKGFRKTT

B1: GCG -41g (rs183433761 minor) (dsDNA)
DNA 1: AGCTGGAGAGTGTATAAAAGCAGTGC
DNA 2: GCACTGCTTTTATACACTCTCCAGCT
Turning to B1, in data set [1], the Kd came to 18 nM.

B2: LEP -35g (rs201381696 minor) (dsDNA)
DNA 1: ATCGGGCCGCTGTAAGAGGGGCGGGC
DNA 2: GCCCGCCCCTCTTACAGCGGCCCGAT
Turning to B2, the dissociation constant Kd in data set [2] was 232 nM.

B3: LEP -38a (rs200487063 minor) (dsDNA)
DNA 1: ATCGGGCCACTATAAGAGGGGCGGGC
DNA 2: GCCCGCCCCTCTTATAGTGGCCCGAT
Turning to B3, in data set [3], the Kd worked out at 43 nM.

B4: GCG WT (dsDNA)
DNA 1: AGCTGGAGAGTATATAAAAGCAGTGC
DNA 2: GCACTGCTTTTATATACTCTCCAGCT
As to B4, in data set [4], the Kd was found to be 8 nM.

B5: LEP WT (dsDNA)
DNA 1: ATCGGGCCGCTATAAGAGGGGCGGGC
DNA 2: GCCCGCCCCTCTTATAGCGGCCCGAT
On to B5, for which the equilibrium dissociation constant (Kd) in data set [5] amounted to 78 nM.

Source of the values: article PMC4686794, “Obesity-related known and candidate SNP markers can significantly change affinity of TATA-binding protein for human gene promoters”.
